The source of these data is patent US20260077071A1, “Targeted Delivery of Theranostic Agents” (Peter MacCallum Cancer Institute, priority 2022, published 2026).

Square brackets hold non-standard residues; d marks the D form. Peptide text beside a SMILES is read from it. * marks the point of attachment. DOTA = O=C(O)CN1CCN(CC(=O)O)CCN(CC(=O)*)CCN(CC(=O)O)CC1; 1Nal = N[C@@H](Cc1cccc2ccccc12)C(=O)O; NMeF = CN[C@@H](Cc1ccccc1)C(=O)O; NMeNle = CCCC[C@H](NC)C(=O)O; Sar = CNCC(=O)O

A short description of series [1]: LogD7.4 determination (PBS pH 7.4 / n-octanol). The class given is physicochemical. Conditions: PBS/Octanol mix, n = 5. As for the experimental part: The distribution coefficients (LogD7.4) of radiolabelled compounds [^68Ga]Ga-1-4, and [^68Ga]Ga-Cmp ex-2 were assayed by measuring radioactivity distribution in the aqueous phase (phosphate buffer pH7.4) and the organic phase (n-octanol). To determine the distribution coefficient (LogD), Ga-68 radiolabelled compounds were diluted to 20 pmol/mL in PBS (pH 7.4) and an equal volume of n-octanol was added. The mixture was vortexed vigorously for 10 cycles of 1 min at room temperature before being centrifuged for 6 min to separate the two phases. Equal volumes from each phase were aliquoted into individual counting tubes and analysed for 1 min using the Perkin Elmer 2480 Wizard2™ gamma counter (PerkinElmer, Massachusetts, USA). The distribution coefficient was calculated using the following equation [formula]

Series [2] is described as follows: in vitro. The class given is in vitro ADME, mouse. Conditions: for remaining at 1.5 h: mouse, pH 7.3. As for the experimental part:
Drug detoxification, drug metabolism and metabolic stability are important determinants of the efficacy of theranostic candidates in clinical settings. To assess metabolic stability, radiolabelled Compounds [^68Ga]Ga-1-4 and comparative example-2 ([^68Ga]Ga-Cmp ex-2) were challenged by incubation in either human serum, mouse liver or kidney homogenates and HEPES buffer as a negative control. Duplicate samples (750-900 pmol/mL) were incubated at 37° C. with pooled human serum, 15% mouse kidney homogenate, 30% mouse liver homogenate or 20 mM HEPES, pH 7.3 (control). Human blood was collected and serum prepared using SSTII advance vacutainer tubes according to the manufacturer's instructions (Becton Dickinson, New Jersey, USA). Mouse kidney and liver homogenates were prepared by washing the tissues in ice-cold HEPES buffer, pH 7.3 and placing them in pre-chilled tubes containing HEPES buffer and 2.38 mm metal beads (Mo-Bio Laboratories, Hilden, Germany). Tissues were homogenised using the PowerLyzer24 homogeniser (Qiagen, Hilden, Germany) according to the manufacturer's instructions. Ga-68 radiolabelled peptides were incubated with the various lysates at 37° C. and samples were collected at 15, 30, 60 and 90 min. Reactions were terminated by addition of an equal volume of acetonitrile and centrifugation for 2 min at 15,000 rpm. Supernatants were diluted in water before being analysed by HPLC using a Kinetex C18 XB column (5 μm 4.6×150 mm), eluted at 1.5 mL/min of gradient 20-60% MeCN in water containing 0.1% formic acid over 7 min.

Broadly, the share remaining is what is left of the initial amount, in per cent. A higher share remaining goes with less turnover.

In series [1], `CCCC[C@@H](C(=O)N[C@@H](CC(=O)O)C(=O)N[C@@H](Cc1cccc2ccccc12)C(N)=O)N(C)C(=O)[C@H](Cc1c[nH]c2ccccc12)NC(=O)CN(C)C(=O)[C@H](Cc1ccc(O)cc1)NC(=O)[C@H](C)NC(=O)[C@@H](CCC(=O)O)NC(=O)[C@@H](CCC(=O)O)NC(=O)[C@@H](CCC(=O)O)NC(=O)[C@@H](C)NC(=O)[C@@H](CCC(=O)O)NC(=O)[C@@H](CCC(=O)O)NC(=O)CN1CCN(CC(=O)O)CCN(CC(=O)O)CCN(CC(=O)O)CC1` [[^68Ga]Ga-1, metal not drawn] ({DOTA}-[dE][dE][dA][dE][dE][dE]AY[Sar]W[NMeNle]D[1Nal]-NH2) displayed a LogD7.4 of −2.88 ± 0.09. In series [2], the “metabolism in kidney homogenates” value is given as “significant metabolism” and the “metabolism in liver homogenates” value is reported as “significant metabolism”. Further, the fraction remaining at 1.5 h in series [2] (other tissue homogenate) turned out to be 75%. Also, the amount remaining at 1.5 h in series [2] (tissue homogenate) was determined as 85%.

As for `CCCC[C@@H](C(=O)N[C@@H](CC(=O)O)C(=O)N(C)[C@@H](Cc1ccccc1)C(N)=O)N(C)C(=O)[C@H](Cc1c[nH]c2ccccc12)NC(=O)CN(C)C(=O)[C@H](Cc1ccc(O)cc1)NC(=O)[C@H](C)NC(=O)[C@@H](CCC(=O)O)NC(=O)[C@@H](CCC(=O)O)NC(=O)[C@@H](CCC(=O)O)NC(=O)[C@@H](C)NC(=O)[C@@H](CCC(=O)O)NC(=O)[C@@H](CCC(=O)O)NC(=O)CN1CCN(CC(=O)O)CCN(CC(=O)O)CCN(CC(=O)O)CC1` [[^68Ga]Ga-2, metal not drawn] ({DOTA}-[dE][dE][dA][dE][dE][dE]AY[Sar]W[NMeNle]D[NMeF]-NH2), in series [1], the LogD7.4 is listed as −3.56 ± 0.01. Moreover, in series [2], the “metabolism in kidney homogenates” value is given as “no observable metabolites detected” and the “metabolism in liver homogenates” value is given as “no observable metabolites detected”.

The compound `CCCC[C@@H](C(=O)N[C@@H](CC(=O)O)C(=O)N[C@@H](Cc1ccccc1)C(N)=O)N(C)C(=O)[C@H](Cc1c[nH]c2ccccc12)NC(=O)CN(C)C(=O)[C@H](Cc1ccc(O)cc1)NC(=O)[C@H](C)NC(=O)[C@@H](CCC(=O)O)NC(=O)[C@@H](CCC(=O)O)NC(=O)[C@@H](CCC(=O)O)NC(=O)[C@@H](C)NC(=O)[C@@H](CCC(=O)O)NC(=O)[C@@H](CCC(=O)O)NC(=O)CN1CCN(CC(=O)O)CCN(CC(=O)O)CCN(CC(=O)O)CC1` [[^68Ga]Ga-3, metal not drawn] ({DOTA}-[dE][dE][dA][dE][dE][dE]AY[Sar]W[NMeNle]DF-NH2) yielded a LogD7.4 in series [1] of −4.06 ± 0.14. In addition, in series [2], the “metabolism in kidney homogenates” value is reported as “significant metabolism” and the “metabolism in liver homogenates” value is “significant metabolism”. Further, the amount remaining at 1.5 h in series [2] (other tissue homogenate) was 20%. The same compound returned an amount remaining at 1.5 h in series [2] (tissue homogenate) of about 35%.
